# Measurements taken from the supplement of paper PMC9112550, “Optimization of the antimicrobial peptide Bac7 by deep mutational scanning” (BMC Biology, 2022).
# Tested on: Escherichia coli TOP10
# Test: shrunken log2 fold change of peptide-encoding DNA abundance (4.5 h post-induction vs induction); higher = less antimicrobial activity (less host growth inhibition)
# Conditions: time post-induction: 4.5 h; library: site-saturation at positions 5, 18, 19, 20
# 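Note: peptides expressed intracellularly from a pBAD plasmid library in pooled LB shake-flask culture, induced with 0.3% L-arabinose, DNA abundance read by NGS, three biological replicates, DESeq2 with apeglm shrinkage.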
row,Sequence,shrunken log2 fold change
1,RRIRNRPPRLPRPRPRPYVLPRP,0.0201
2,RRIRQRPPRLPRPRPRPTFKPRP,-0.225
3,RRIRDRPPRLPRPRPRPNLEPRP,0.27
4,RRIRDRPPRLPRPRPRPYPWPRP,-0.136
5,RRIRQRPPRLPRPRPRPAYSPRP,-0.051
6,RRIRQRPPRLPRPRPRPRQNPRP,0.402
7,RRIRDRPPRLPRPRPRPKAYPRP,0.053
8,RRIRFRPPRLPRPRPRPMLQPRP,-0.152
9,RRIRMRPPRLPRPRPRPRQWPRP,0.0789
10,RRIRKRPPRLPRPRPRPQEMPRP,-0.00136
11,RRIRPRPPRLPRPRPRPFVCPRP,-0.395
12,RRIRSRPPRLPRPRPRPPPGPRP,0.891
13,RRIRCRPPRLPRPRPRPSKVPRP,-0.156
14,RRIRKRPPRLPRPRPRPHNSPRP,-0.24
15,RRIRARPPRLPRPRPRPPRKPRP,1.1
16,RRIRLRPPRLPRPRPRPHQHPRP,-0.109
17,RRIRPRPPRLPRPRPRPRCWPRP,0.689
18,RRIRARPPRLPRPRPRPTPPPRP,0.811
19,RRIRPRPPRLPRPRPRPGWSPRP,0.0867
20,RRIRRRPPRLPRPRPRPQMSPRP,0.0441
21,RRIRCRPPRLPRPRPRPYWHPRP,-1.53
22,RRIRHRPPRLPRPRPRPWWYPRP,-0.0664
23,RRIRDRPPRLPRPRPRPITKPRP,0.283
24,RRIRSRPPRLPRPRPRPKVWPRP,0.115
25,RRIRMRPPRLPRPRPRPFHVPRP,-0.726

row,Sequence,shrunken log2 fold change
1,RRIRNRPPRLPRPRPRPARLPRP,0.184
2,RRIRWRPPRLPRPRPRPVFLPRP,-0.0837
3,RRIRYRPPRLPRPRPRPYMFPRP,-0.651
4,RRIRIRPPRLPRPRPRPFLRPRP,-0.2
5,RRIRFRPPRLPRPRPRPPQEPRP,0.258
6,RRIRMRPPRLPRPRPRPDMQPRP,2
7,RRIRNRPPRLPRPRPRPPAFPRP,0.0832
8,RRIRDRPPRLPRPRPRPYVHPRP,-0.407
9,RRIRLRPPRLPRPRPRPQHNPRP,-0.507
10,RRIRTRPPRLPRPRPRPGTWPRP,-0.0246
11,RRIRFRPPRLPRPRPRPFECPRP,-0.0767
12,RRIRRRPPRLPRPRPRPCGAPRP,0.503
13,RRIRLRPPRLPRPRPRPSFGPRP,0.197
14,RRIRWRPPRLPRPRPRPMGDPRP,0.676
15,RRIRHRPPRLPRPRPRPDTCPRP,-0.287
16,RRIRVRPPRLPRPRPRPWVTPRP,-0.375
17,RRIRRRPPRLPRPRPRPMFRPRP,-0.0342
18,RRIRYRPPRLPRPRPRPQGSPRP,-0.19
19,RRIRIRPPRLPRPRPRPNCNPRP,-0.845
20,RRIRPRPPRLPRPRPRPIFHPRP,-0.0968
21,RRIRERPPRLPRPRPRPALSPRP,0.15
22,RRIRHRPPRLPRPRPRPLFFPRP,-0.171
23,RRIRCRPPRLPRPRPRPMHRPRP,0.0421
24,RRIRNRPPRLPRPRPRPQMYPRP,-0.864
25,RRIRSRPPRLPRPRPRPQDCPRP,-0.261

row,Sequence,shrunken log2 fold change
1,RRIRSRPPRLPRPRPRPYTHPRP,-1.3
2,RRIRARPPRLPRPRPRPPCMPRP,0.099
3,RRIRHRPPRLPRPRPRPRQPPRP,0.474
4,RRIRTRPPRLPRPRPRPYRCPRP,-0.123
5,RRIRNRPPRLPRPRPRPIPFPRP,-0.0196
6,RRIRLRPPRLPRPRPRPLALPRP,-0.438
7,RRIRCRPPRLPRPRPRPNRPPRP,-0.0846
8,RRIRFRPPRLPRPRPRPVWDPRP,0.0852
9,RRIRARPPRLPRPRPRPIRYPRP,-0.263
10,RRIRYRPPRLPRPRPRPRHSPRP,-0.127
11,RRIRARPPRLPRPRPRPGPTPRP,0.574
12,RRIRRRPPRLPRPRPRPSMRPRP,0.557
13,RRIRFRPPRLPRPRPRPGMRPRP,0.44
14,RRIRPRPPRLPRPRPRPAMGPRP,0.332
15,RRIRDRPPRLPRPRPRPQCFPRP,0.0363
16,RRIRHRPPRLPRPRPRPNSRPRP,-0.0698
17,RRIRPRPPRLPRPRPRPQNMPRP,-0.358
18,RRIRVRPPRLPRPRPRPRFKPRP,0.107
19,RRIRLRPPRLPRPRPRPGGGPRP,0.849
20,RRIRPRPPRLPRPRPRPACTPRP,0.163
21,RRIRDRPPRLPRPRPRPNKAPRP,0.0205
22,RRIRKRPPRLPRPRPRPYQLPRP,-0.0193
23,RRIRQRPPRLPRPRPRPYYKPRP,-0.962
24,RRIRYRPPRLPRPRPRPTNIPRP,-0.841
25,RRIRNRPPRLPRPRPRPVKYPRP,-0.288

row,Sequence,shrunken log2 fold change
1,RRIRIRPPRLPRPRPRPHKVPRP,-0.0742
2,RRIRSRPPRLPRPRPRPHDRPRP,-0.138
3,RRIRSRPPRLPRPRPRPTLHPRP,0.147
4,RRIRARPPRLPRPRPRPVPGPRP,0.672
5,RRIRWRPPRLPRPRPRPDVNPRP,-0.125
6,RRIRFRPPRLPRPRPRPKVQPRP,0.199
7,RRIRWRPPRLPRPRPRPTIQPRP,0.0488
8,RRIRNRPPRLPRPRPRPRPWPRP,0.116
9,RRIRMRPPRLPRPRPRPKQGPRP,-0.000896
10,RRIRPRPPRLPRPRPRPDMNPRP,-0.268
11,RRIRDRPPRLPRPRPRPPELPRP,0.107
12,RRIRMRPPRLPRPRPRPITSPRP,0.0639
13,RRIRQRPPRLPRPRPRPNQDPRP,-0.0715
14,RRIRSRPPRLPRPRPRPYLWPRP,-0.0115
15,RRIRSRPPRLPRPRPRPMDFPRP,-0.215
16,RRIRARPPRLPRPRPRPYLTPRP,-0.655
17,RRIRPRPPRLPRPRPRPGFGPRP,0.752
18,RRIRVRPPRLPRPRPRPENNPRP,0.00554
19,RRIRTRPPRLPRPRPRPQEFPRP,0.0555
20,RRIRFRPPRLPRPRPRPCSVPRP,-0.338
21,RRIRFRPPRLPRPRPRPFNYPRP,-0.183
22,RRIRIRPPRLPRPRPRPPFVPRP,0.104
23,RRIRQRPPRLPRPRPRPEYAPRP,-0.042
24,RRIRSRPPRLPRPRPRPEVAPRP,0.102
25,RRIRARPPRLPRPRPRPDPNPRP,0.531

row,Sequence,shrunken log2 fold change
1,RRIRMRPPRLPRPRPRPDNSPRP,-0.071
2,RRIRPRPPRLPRPRPRPMWQPRP,0.0423
3,RRIRFRPPRLPRPRPRPGIGPRP,-0.0363
4,RRIRCRPPRLPRPRPRPVSCPRP,0.193
5,RRIRARPPRLPRPRPRPTRNPRP,0.657
6,RRIRCRPPRLPRPRPRPCSQPRP,-0.256
7,RRIRTRPPRLPRPRPRPNVLPRP,-0.0117
8,RRIRSRPPRLPRPRPRPHRAPRP,0.0729
9,RRIRQRPPRLPRPRPRPSQGPRP,4.77e-05
10,RRIRYRPPRLPRPRPRPRIDPRP,-0.174
11,RRIRFRPPRLPRPRPRPYIYPRP,-0.0532
12,RRIRKRPPRLPRPRPRPNNDPRP,0.0263
13,RRIRARPPRLPRPRPRPYEQPRP,0.0674
14,RRIRCRPPRLPRPRPRPHPDPRP,-0.0728
15,RRIRLRPPRLPRPRPRPHHYPRP,-0.628
16,RRIRSRPPRLPRPRPRPFIQPRP,-0.0991
17,RRIRGRPPRLPRPRPRPYVYPRP,-0.0911
18,RRIRCRPPRLPRPRPRPLMEPRP,-0.0946
19,RRIRRRPPRLPRPRPRPFADPRP,-0.0461
20,RRIRIRPPRLPRPRPRPLNPPRP,-0.428
21,RRIRHRPPRLPRPRPRPRMSPRP,-0.0693
22,RRIRIRPPRLPRPRPRPGDSPRP,0.0577
23,RRIRTRPPRLPRPRPRPCTDPRP,-0.502
24,RRIRTRPPRLPRPRPRPYMEPRP,2.39
25,RRIRRRPPRLPRPRPRPINWPRP,-0.0685

row,Sequence,shrunken log2 fold change
1,RRIRWRPPRLPRPRPRPRMLPRP,0.281
2,RRIRSRPPRLPRPRPRPARAPRP,0.985
3,RRIRVRPPRLPRPRPRPHQAPRP,0.0697
4,RRIRPRPPRLPRPRPRPKQIPRP,0.0957
5,RRIRPRPPRLPRPRPRPCACPRP,-0.129
6,RRIRERPPRLPRPRPRPKYLPRP,-0.77
7,RRIRPRPPRLPRPRPRPGVTPRP,-0.227
8,RRIRWRPPRLPRPRPRPMATPRP,0.26
9,RRIRYRPPRLPRPRPRPLHWPRP,-0.211
10,RRIRLRPPRLPRPRPRPRFPPRP,-0.0246
11,RRIRCRPPRLPRPRPRPCRFPRP,-0.178
12,RRIRPRPPRLPRPRPRPCKRPRP,-0.0941
13,RRIRSRPPRLPRPRPRPNSWPRP,0.0508
14,RRIRGRPPRLPRPRPRPNNFPRP,0.291
15,RRIRGRPPRLPRPRPRPNYWPRP,-0.115
16,RRIRARPPRLPRPRPRPAGHPRP,0.398
17,RRIRFRPPRLPRPRPRPVNSPRP,-0.154
18,RRIRVRPPRLPRPRPRPFAGPRP,0.03
19,RRIRTRPPRLPRPRPRPAPMPRP,0.202
20,RRIRGRPPRLPRPRPRPPAPPRP,1.6
21,RRIRMRPPRLPRPRPRPCSEPRP,0.514
22,RRIRGRPPRLPRPRPRPWEWPRP,0.911
23,RRIRKRPPRLPRPRPRPYEAPRP,-0.325
24,RRIRFRPPRLPRPRPRPDELPRP,0.0112
25,RRIRYRPPRLPRPRPRPIPQPRP,-0.0934
